Here are results for 6 molecules from doi:10.1101/798371 (bioRxiv, 2019).

B1: Tom22 (natural protein, S. cerevisiae, UniProt P49334 1-152, looked up)
chain: MVELTEIKDDVVQLDEPQFSRNQAIVEEKASATNNDVVDDEDDSDSDFEDEFDENETLLDRIVALKDIVPPGKRQTISNFFGFTSSFVRNAFTKSGNLAWTLTTTALLLGVPLSLSILAEQQLIEMEKTFDLQSDANNILAQGEKDAAATAN
B4: Tom40 (natural protein, S. cerevisiae, UniProt P23644 1-387, looked up)
chain: MSAPTPLAEASQIPTIPALSPLTAKQSKGNFFSSNPISSFVVDTYKQLHSHRQSLELVNPGTVENLNKEVSRDVFLSQYFFTGLRADLNKAFSMNPAFQTSHTFSIGSQALPKYAFSALFANDNLFAQGNIDNDLSVSGRLNYGWDKKNISKVNLQISDGQPTMCQLEQDYQASDFSVNVKTLNPSFSEKGEFTGVAVASFLQSVTPQLALGLETLYSRTDGSAPGDAGVSYLTRYVSKKQDWIFSGQLQANGALIASLWRKVAQNVEAGIETTLQAGMVPITDPLMGTPIGIQPTVEGSTTIGAKYEYRQSVYRGTLDSNGKVACFLERKVLPTLSVLFCGEIDHFKNDTKIGCGLQFETAGNQELLMLQQGLDADGNPLQALPQL

Values joined by “and” are separate entries in the source; they are usually repeats but may differ in a detail not shown here. Identical values can stand only once. Like-named read-outs stand apart in the source and are kept apart here.

In series [1] the target is B4. Nature of the series: cryo-EM structure.
The target of series [2] is B4. Briefly: cryo-EM structure. This is another data set of the same source.
The series “Tom22” has as its target B1. Nature of the series: cryo-EM structure.
Series [3] deals with the molecule itself. Briefly: cryo-EM structure.
Series [4] deals with the molecule itself. Briefly: cryo-EM structure. This is another data set of the same source.
The series “SEC” concerns the molecule itself. Nature of the series: SEC. (In general: In gel filtration, larger molecules generally elute earlier.)

For the molecule B1, in the series with Tom40 [1], the binding result is on record as “binds”.

With MFGLPQQEVSEEEKRAHQEQTEKTLKQAAYVAAFLWVSPMIWHLVKKQWK (natural protein, S. cerevisiae, UniProt P80967 1-50, looked up) [Tom5], the binding result with Tom40 [2] and with Tom22 was “binds” in each case.

B2: Tom7 (natural protein, S. cerevisiae, UniProt P53507 1-60, looked up)
chain: MSFLPSFILSDESKERISKILTLTHNVAHYGWIPFVLYLGWAHTSNRPNFLNLLSPLPSV
Turning to B2, the binding result with Tom40 [2] was “binds”.

B3: Tom6 (natural protein, S. cerevisiae, UniProt P33448 1-61, looked up)
chain: MDGMFAMPGAAAGAASPQQPKSRFQAFKESPLYTIALNGAFFVAGVAFIQSPLMDMLAPQL
Take B3: the binding result with Tom40 [2] and in “cryo-EM structure [3]” was “binds” in each case.

Regarding B4, the binding result in the series “cryo-EM structure [4]” is given as “binds”.

B5: core TOM complex (monomeric unit: Tom40, Tom22, Tom5, Tom6, Tom7) (complex, S. cerevisiae)
chain 1: MSAPTPLAEASQIPTIPALSPLTAKQSKGNFFSSNPISSFVVDTYKQLHSHRQSLELVNPGTVENLNKEVSRDVFLSQYFFTGLRADLNKAFSMNPAFQTSHTFSIGSQALPKYAFSALFANDNLFAQGNIDNDLSVSGRLNYGWDKKNISKVNLQISDGQPTMCQLEQDYQASDFSVNVKTLNPSFSEKGEFTGVAVASFLQSVTPQLALGLETLYSRTDGSAPGDAGVSYLTRYVSKKQDWIFSGQLQANGALIASLWRKVAQNVEAGIETTLQAGMVPITDPLMGTPIGIQPTVEGSTTIGAKYEYRQSVYRGTLDSNGKVACFLERKVLPTLSVLFCGEIDHFKNDTKIGCGLQFETAGNQELLMLQQGLDADGNPLQALPQL
chain 2: MVELTEIKDDVVQLDEPQFSRNQAIVEEKASATNNDVVDDEDDSDSDFEDEFDENETLLDRIVALKDIVPPGKRQTISNFFGFTSSFVRNAFTKSGNLAWTLTTTALLLGVPLSLSILAEQQLIEMEKTFDLQSDANNILAQGEKDAAATAN
chain 3: MFGLPQQEVSEEEKRAHQEQTEKTLKQAAYVAAFLWVSPMIWHLVKKQWK
chain 4: MDGMFAMPGAAAGAASPQQPKSRFQAFKESPLYTIALNGAFFVAGVAFIQSPLMDMLAPQL
chain 5: MSFLPSFILSDESKERISKILTLTHNVAHYGWIPFVLYLGWAHTSNRPNFLNLLSPLPSV
The stoichiometry N is a count of units in the complex or per binding partner. Consider B5, for which the “stoichiometry N” value was 4 and 3 in “cryo-EM structure [3]”; 2 in “SEC”.
